Experimental findings from the nanobody polyreactivity screen of Harvey et al. (2022) are described below.

This data set can be described thus: yeast display, Sf9 membrane polyspecificity reagent, FACS + sequencing; frameworks hold sequencing errors. The essentials: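 Synthetic nanobody libraries on Saccharomyces cerevisiae BJ5465 were galactose-induced for 36–48 hours, stained 1 hour at 4 °C with 10% biotinylated, detergent-solubilized Sf9 membrane reagent and enriched on streptavidin microbeads. FACS then separated cells into low and high (top ~1%) gates by anti-HA (expression) and streptavidin (reagent binding) fluorescence. Genes were colony-PCR amplified, MiSeq 2 × 250 sequenced and CDR-length filtered. A clone's polyreactivity label is that of its gate of origin.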
As to “QVQLVESGGGLVQAGGSLRLSCAASGIIFWDNAMGWYRQAPGQDRELVASINYSGGSTYYADSVKGRFTISRDNAKNTVYLQMNSLKPEDTAVYDCAARTVTLDDWDYAYDYWGQGTQVTVSS”, the “polyreactivity (PSR sort gate)” value was “low polyreactivity”. The value for “QVQLEESGGGLVQAGGSLRLSCAASGRTFRSYTMGWYRQAPGKERELGAAISYNGGSTYYADSVNGRFTISRDYAKNTVYLQMNSLKPEDTSVYYCAVYSIYGFYYWGQGTQVTVSS” was “high polyreactivity”; that for “QVQLVESGGGLVQAGGSLRLSCAASGSTFYVNAMGWYRQTPGKEREFVAAITWNSGSTYYADSVKGRFTISRDNEKNTVYLQMNSLKPEDTAVYYCAAVLSVRVYGYDYWGQGTQVTVSS” was “low polyreactivity”.

On to “QVQLVESGGGLVQAGGSLRLSCAASGLTFVYYVLGWYRQAPGKESELVAAITDGGSTYYADSVKGRFTISRDNAKNTVYLQMNSRKPEDTAVYYCAADYYWLYGRWGVDYWGQGTQVTVSS”, for which the “polyreactivity (PSR sort gate)” value was “high polyreactivity”. Under “QVQLVESGGGLVQAGGSLRLSCAASGFIFNYYAMGWYRQAPGKEREFVAAITWRGGSTNYADSVKGRFTISRDNAKNTVYLQMNSLKPEDTAVYYCAAYSVWGGSYLALDYWGQGTQVTVSS” stands “low polyreactivity”; under “QVQLVESGGGLVQAGGSLRLSCAASGSNFRVYAMGWYRQAPGKERELVAAISSSGVRTSYADSVKGRFTISRDIAKNTVYLQMNSLKPEDTSVYYCADRYPYGYYHWGQGTQVTVSS”, “high polyreactivity”. The value for “QVQLVDSGGGLFQAGGSLSLICAASASKYDINAMGRYRQAPGKETELVADISWSGGRTYYADSVKGRFTISRDNAKNTVYLKMNSLKPEETAVYYCNAQDSRFWYAEYDSWGQGTQVTVSS” was “low polyreactivity”; that for “QVQLVESGGGLVQAGGSLRLSCAASGRTLSIYAMGMYRQAPGKEMELVASISSSGGRTDYADSVKGRFTISRDNAKYTVYLQMNSLKPEDTAVYYCAADGGYYYPYRGYHKYYYWGQGTLVTVSS” was “low polyreactivity”; that for “QVQLVESGGGLVQAGGSLRLSCAASGYTFRSNTMGWYRQAPGKERELVAAISGRGSSTYYADSVKGRFTISRDNAKNTVYLQMNSLKPEDTAVYYWNAPYNRATYNYWGQGTQVNVSS” was “high polyreactivity”. Under “QVQLVESGGGLVQAGGSLRLRCAASGFTFRYYAMGWYRQAPGKERELVASTYYADSVKGRFTISRDNAKNTVYLQMNSLKPEDTAVYYCNVDGTSSSPFVQKHKEMDYWGQGTQVTVSS” stands “low polyreactivity”.

With “QVQLVESGGGLVQAGGSLRLSCAASGFTFSYYAMGWYRQAPGKERELVASISRSGNTYYADSVKGRFTISRDNAKNTVYLQMNSLKPEDTAVYYCNARRHYRRYSYRHNYWGQGTQVTVSS”, the “polyreactivity (PSR sort gate)” value was “high polyreactivity”. With “QFQLVDSGGGLVQAGGSLRLSCAASGRNYRLYAMGWSRQAPRKERELVAAITRGGRTNYAYSVKGRFTISRDNAMNTVYLQMNSLKPEDTAVYYCAARFVERDTDYYYWGQGTQVTVSS”, the “polyreactivity (PSR sort gate)” value was “low polyreactivity”. The value for “QVQLVESGGGLVQAGGSLRLSCAASGSIFADYVMGWYRRAPGKERELVAAITRRGRTYYADSVKGRFTISRDNAKNTVYLQMNSLKPEDTAVYYCAKVASGKIDSWGQGTQVTVSS” was “low polyreactivity”.

On to “QVQLVESGGGLVQAGGSLRLSCAASGRIFHSYAMGWYRQAPGKERELVASITWDSTSTNYADSVKGRFTISRDNAKNTVYLQMNSLKPEDTAVYYCNADESRYGFGYDYWGQGTQVTVSS”, for which the “polyreactivity (PSR sort gate)” value is recorded as “low polyreactivity”. Consider “QVQLVESGGGLVQAGGSLRLSCAPSGSSKLMLWDGIDRRLGKKGSWLPLFVLVVLRNYADSVKGRFTISRDNANNTVYLQMNSLKPEDTAVYYCAATPIGSGGWGDYWGQGTQVTVSS”, for which the “polyreactivity (PSR sort gate)” value was “low polyreactivity”.

Take “QVQLVESGGGLVQAGGSLRLSCDASGFTFGENAMGWYRQAPGNERELVAAISWSGTYTSYADSVKGRFTLSRDNAKNTVYLQMNSLKPEDTAVYYCATGCYAYVYPFDYWGQGTLVTVSS”: the “polyreactivity (PSR sort gate)” value is recorded as “low polyreactivity”. The value for “QVQLVESGGGLVQAGGSLRLSCAASGRIFSVYTMGWYRQAPGKERELVAGISRGGSTDYADSVKGRFTISRDNAKNTVYLQMNSLKPEDTAVYYCAATYTYRWYQFNFWGQGTQVTVSS” was “high polyreactivity”; that for “QVQLVESGGGLFQAGGSLRLSCAASGFTFPHYMGWYRQAPGKERELVAAINVSGGSTSYADSVKGRFSISRDNAKNTVYLQMNSLKPEDTGVYFCAKDLRFRLFSYPSDYWGQGTQVTVSS” was “low polyreactivity”; that for “QVQLVESGGGLVQAGGSLRLSCAASGIIFDYNAMGWYRPAPGKERELVAAITSTDNTNYADSVKGRFTISRDNAKNTVYLQMNCLKPEDTAVYYCNTDYWLSVVYAMDYWGQGTQVTVSS” was “low polyreactivity”. Under “QVQLVESGGGLVQEGGSLRLSCAASGSTFRTYAMGWYRQAPGKERELVAAISGDTSTNYADSVKGRFTISRDNAKNTVYLQMNSLKPEDTAVYYCAAYWTTYATLWYDYWGQGTQVTVSS” stands “low polyreactivity”; under “QVQLVESGGGLVQAGGSLRLSCAASGLTFTGYAMGWYRQATGKERELVASISRSGASTFYADSVKGRFTISRDNAKNTVYLQMNSLKPEDTAVYYCAAVPGWLTSRYYYWGQGTQVTVSS”, “high polyreactivity”; under “QVQLVESGGGLVQGGGSLRLRCAASGFNFDWYTMGWYRQAPGKERELVAAITIGGSTDYADSVKGRFTISRDNAKNTVYLQMNSLKREDTAVYYCNALWYLSGTWYDYWGQGTQVTVSS”, “low polyreactivity”.

Regarding “QVQLVESGGGLVQAGGSLRLSCAASGRTFLYYAMGWYRQAPGKERELVAAISTGSSTYYADSVKGRFTISRDNAKNTVYLQMNSLKPEDTAVYYCAAGSIVGYPGFSTDDYWGQGTQVTVSS”, the “polyreactivity (PSR sort gate)” value is “low polyreactivity”. Under “QVQLVESGGGLVQAGGSLRLSCAASGRIFGRNAMGWYRQAPGKEREFVARIRTSGGSTYYADSVKGRFTISRDNAKNTVYLQMISLTPEDTAVYYCAAAVYTSARGYDYWGQGTQVTVSS” stands “high polyreactivity”. Under “QDQLVESGGGLVQAGGTLRLSCAASGRIFKSYAMGWYRQAPGKEREVVASISYTGGSTYYADSVKGRFTISRDNAKNTVYLEMNSLNPEDTAVYYFAAKRVRSAGSYGYWGQVTQVTVSS” stands “low polyreactivity”; under “QVQLVESGGGLVQAGGSLRLSCAASGRTFYFYAMGWYRHAPGKERELVAAITSGGGRTNYADSVKGRFTISRDNAKNTVYLQMNSLKPEDTSVYYCAAVLYGQYTGKYYFWGQGTQVTVSS”, “high polyreactivity”; under “QVQLVESGGGLVQAGGSLRVSCAASGRIFDSYAMGWSRQAPGKERELVAVISNNDGTTYYADSVKGRFTISRDNAKTTVYLQMNSLKPEDTAVYYCNAVYSSGVDGSEGFDYWGQGTQVTVSS”, “low polyreactivity”.

As for “QVQLVESGGGLVQAGGSLRLSCAASGRIFSWYTMGWYRQAPGKERELVAIISRSGGSTYYADSVKGRFTISRDNAKNTVYLQMNSLKPEDTAVYYCNARWSFSYTVWVDSYWGLDDYWGQGTQVTVSS”, the “polyreactivity (PSR sort gate)” value is given as “high polyreactivity”.

“QVQLVESGGGLVQAGGSLRLSCAASGSTSSTYSMGWYRQAPGKERELVATINWDGASTYYADSVKGRFTISRDNAKNTVYLQMNSLIPEDTAVYYCAAQSGAVHFLEDDYWGHGTQVTVSS”: the “polyreactivity (PSR sort gate)” value is recorded as “low polyreactivity”. Turning to “QVQLVESGGGLVQAGGSLRLSCAASGSIFRLYAMGWYRQAPGKERELVAVISYSGGSTYYADSVKGRFTISRDNAKNTVYLQMNSLNPEDTAVYYCAARRRWYGIRNYYWGQGSQVTVSS”, the “polyreactivity (PSR sort gate)” value was “high polyreactivity”. On to “QVKLVESGGRLVQAGGSLRLTCAASGFIFLNYSMGWYRQAHGKERELVAAISRSGGRTYYADSVTGRFTISRDYAKNTVYLQMNSLKPEDPAVYYCAVYIYGIVFYFTYMYVNCYDYWGQGTQVTVSS”, for which the “polyreactivity (PSR sort gate)” value is “high polyreactivity”. Under “QVQLVESGGGLVQAVGSLRLSCAAYGSTFYVNAMGWYRQAPGKEREFVAAITWNSGSTYYADSVKGRFTISRDNAKNTVYLQMNSLKPEDTAVYYCAAVLYVRVYGYDYWGQGTQVTVSS” stands “low polyreactivity”; under “QVQLVESGGGLVQAGGSLRLSCAASGITIGYNAMGWYRQAPGKERELVATIRSGGSTYYADSVKGRFTISRDNAQKTVYLQMNSLKPEDTAVYYCNRDGYYYSTFDFDYWGQGTQVTVSS”, “low polyreactivity”.

Take “QVQLVESGGGLVQAGGSLRLSCAASGFIFTSYAMGWYRQAPGKERELVAAISGSAASTYYADSVKGRFTISRDNAKNTVYLQMNSLKPEDTAVYYCAADYQGYTPSDGRYYWGQGTQVTVSS”: the “polyreactivity (PSR sort gate)” value is “low polyreactivity”. Under “QVQLVESGGGLVQAGGSLRLICAASGLTFTPNAMGWYRQAPWKEREFVAAITWRGGRTYYADSVKGRFTISRDNAKNTVYLQMNSLKPEDTAVYYCAVTYRPTDQLDYWGQGTQVTVSS” stands “high polyreactivity”; under “QVQLVESGGGLVQAGGSLRLSCAASGSTFDRYAMGWYRQAPGKERELVAAISWSAGRTYYADSVKGRFTISRDNAKNTVYLQMNSLKPEDTAVNYCAADQIVSGTYDYYWGQGTQVTVAS”, “low polyreactivity”; under “QDQLVESGGGLVQAGGSLRLSCAASGRIFYTNAMGWYRQAPGKERQLVATISSTGSTNYADSVKGRFTISRDNAKNTVYLQMNSLKPEDTAVYYCATQVGWRTYSHRNRGYYYWGQGTQVTVSS”, “high polyreactivity”.

As to “QVQLVESGGRLVQAGGSLRLSCAASGRIFRYNAMGWYIQAPGKEREFVAAIRGSSSRTYYADSVKGRFTISRDNAKNTVYLQMNSLKPEDTAVYYCNAYVYYSHEDDYWGQGTQVTVSS”, the “polyreactivity (PSR sort gate)” value is reported as “high polyreactivity”. The value for “QVQLVESGGGLVQAGGSLRLSCAASGFTFYTYAMGLYRQAPGKERELVAAITSSGGSTYYADSVKGRFTISRDNAKNTVYLQMKSLKPEDTAVYYCNAVSYYLGDDYWGQGTQVTVSS” was “high polyreactivity”; that for “QVQLQESGGLVQAGGSLRLSCAASGSISGRNVMGWYRQAPGQEREFVASITDGSSTNYADSVKGRFTISRDNAKNTVYLQMNSLKPKDTAVYYCAAYAQRAKSFGYWGRGTQVTVSS” was “low polyreactivity”. “QVQLVESWGGLVQAGGSLRLSCASSGITFSPYALGWYRQAPGKERELVAAISSRGGSTYYADSVKGRFTISRDNAKNTVYFQMNSLKPEDTAVFYCNALTFVRYLFHYTYWGQGTQVTVSS”: the “polyreactivity (PSR sort gate)” value is reported as “high polyreactivity”.
